Measurements reported in paper PMC8003784, “Two Key Amino Acids Variant of α-L-arabinofuranosidase from Bacillus subtilis Str. 168 with Altered Activity for Selective Conversion Ginsenoside Rc to Rd” (Molecules, 2021).

B1: BsAbfA (Bacillus subtilis subsp. subtilis str. 168) (protein)
chain: MKKARMIVDKEYKIGEVDKRIYGSFIEHMGRAVYEGIYEPDHPEADEDGFRKDVQSLIKELQVPIIRYPGGNFLSGYNWEDGVGPVENRPRRLDLAWQTTETNEVGTNEFLSWAKKVNTEVNMAVNLGTRGIDAARNLVEYCNHPKGSYWSDLRRSHGYEQPYGIKTWCLGNEMDGPWQIGHKTADEYGRLAAETAKVMKWVDPSIELVACGSSNSGMPTFIDWEAKVLEHTYEHVDYISLHTYYGNRDNNLPNYLARSMDLDHFIKSVAATCDYVKAKTRSKKTINLSLDEWNVWYHSNEADKKVEPWITARPILEDIYNFEDALLVGSLLITMLQHADRVKIACLAQLVNVIAPIMTEKGGEAWRQPIFYPYMHASVYGRGESLKPLISSPKYDCSDFTDVPYVDAAVVYSEEEETLTIFAVNKAEDQMETEISLRGFESYQIAEHIVLEHQDIKATNQHNRKNVVPHSNGSSSVSENGLTAHFTPLSWNVIRLKKQS
notes: full ORF, codon-optimised, N-terminal His-tag (pET-28a), E. coli BL21(DE3), Ni-NTA purified, approx. 60 kDa; GH51
B2: BsAbfA (Bacillus subtilis subsp. subtilis str. 168; E173D) (protein)
chain: MKKARMIVDKEYKIGEVDKRIYGSFIEHMGRAVYEGIYEPDHPEADEDGFRKDVQSLIKELQVPIIRYPGGNFLSGYNWEDGVGPVENRPRRLDLAWQTTETNEVGTNEFLSWAKKVNTEVNMAVNLGTRGIDAARNLVEYCNHPKGSYWSDLRRSHGYEQPYGIKTWCLGNDMDGPWQIGHKTADEYGRLAAETAKVMKWVDPSIELVACGSSNSGMPTFIDWEAKVLEHTYEHVDYISLHTYYGNRDNNLPNYLARSMDLDHFIKSVAATCDYVKAKTRSKKTINLSLDEWNVWYHSNEADKKVEPWITARPILEDIYNFEDALLVGSLLITMLQHADRVKIACLAQLVNVIAPIMTEKGGEAWRQPIFYPYMHASVYGRGESLKPLISSPKYDCSDFTDVPYVDAAVVYSEEEETLTIFAVNKAEDQMETEISLRGFESYQIAEHIVLEHQDIKATNQHNRKNVVPHSNGSSSVSENGLTAHFTPLSWNVIRLKKQS
notes: as for B1
B3: BsAbfA (Bacillus subtilis subsp. subtilis str. 168; E173Q) (protein)
chain: MKKARMIVDKEYKIGEVDKRIYGSFIEHMGRAVYEGIYEPDHPEADEDGFRKDVQSLIKELQVPIIRYPGGNFLSGYNWEDGVGPVENRPRRLDLAWQTTETNEVGTNEFLSWAKKVNTEVNMAVNLGTRGIDAARNLVEYCNHPKGSYWSDLRRSHGYEQPYGIKTWCLGNQMDGPWQIGHKTADEYGRLAAETAKVMKWVDPSIELVACGSSNSGMPTFIDWEAKVLEHTYEHVDYISLHTYYGNRDNNLPNYLARSMDLDHFIKSVAATCDYVKAKTRSKKTINLSLDEWNVWYHSNEADKKVEPWITARPILEDIYNFEDALLVGSLLITMLQHADRVKIACLAQLVNVIAPIMTEKGGEAWRQPIFYPYMHASVYGRGESLKPLISSPKYDCSDFTDVPYVDAAVVYSEEEETLTIFAVNKAEDQMETEISLRGFESYQIAEHIVLEHQDIKATNQHNRKNVVPHSNGSSSVSENGLTAHFTPLSWNVIRLKKQS
notes: as for B1
B4: BsAbfA (Bacillus subtilis subsp. subtilis str. 168; E292D) (protein)
chain: MKKARMIVDKEYKIGEVDKRIYGSFIEHMGRAVYEGIYEPDHPEADEDGFRKDVQSLIKELQVPIIRYPGGNFLSGYNWEDGVGPVENRPRRLDLAWQTTETNEVGTNEFLSWAKKVNTEVNMAVNLGTRGIDAARNLVEYCNHPKGSYWSDLRRSHGYEQPYGIKTWCLGNEMDGPWQIGHKTADEYGRLAAETAKVMKWVDPSIELVACGSSNSGMPTFIDWEAKVLEHTYEHVDYISLHTYYGNRDNNLPNYLARSMDLDHFIKSVAATCDYVKAKTRSKKTINLSLDDWNVWYHSNEADKKVEPWITARPILEDIYNFEDALLVGSLLITMLQHADRVKIACLAQLVNVIAPIMTEKGGEAWRQPIFYPYMHASVYGRGESLKPLISSPKYDCSDFTDVPYVDAAVVYSEEEETLTIFAVNKAEDQMETEISLRGFESYQIAEHIVLEHQDIKATNQHNRKNVVPHSNGSSSVSENGLTAHFTPLSWNVIRLKKQS
notes: as for B1
B5: BsAbfA (Bacillus subtilis subsp. subtilis str. 168; E292Q) (protein)
chain: MKKARMIVDKEYKIGEVDKRIYGSFIEHMGRAVYEGIYEPDHPEADEDGFRKDVQSLIKELQVPIIRYPGGNFLSGYNWEDGVGPVENRPRRLDLAWQTTETNEVGTNEFLSWAKKVNTEVNMAVNLGTRGIDAARNLVEYCNHPKGSYWSDLRRSHGYEQPYGIKTWCLGNEMDGPWQIGHKTADEYGRLAAETAKVMKWVDPSIELVACGSSNSGMPTFIDWEAKVLEHTYEHVDYISLHTYYGNRDNNLPNYLARSMDLDHFIKSVAATCDYVKAKTRSKKTINLSLDQWNVWYHSNEADKKVEPWITARPILEDIYNFEDALLVGSLLITMLQHADRVKIACLAQLVNVIAPIMTEKGGEAWRQPIFYPYMHASVYGRGESLKPLISSPKYDCSDFTDVPYVDAAVVYSEEEETLTIFAVNKAEDQMETEISLRGFESYQIAEHIVLEHQDIKATNQHNRKNVVPHSNGSSSVSENGLTAHFTPLSWNVIRLKKQS
notes: as for B1

substrate: O=[N+]([O-])c1ccc(O[C@@H]2O[C@@H](CO)[C@H](O)[C@H]2O)cc1; experiment: purified protein; format: biochemical, Bacillus subtilis; conditions: pH 5, 40 °C, 50 mM citric acid/sodium citrate

**Q.** Which results are given for B1?
**A.** Km: 600 ± 80 µM; kcat: 109 ± 8.6 s⁻¹; kcat/Km: 182000 ± 6900 M⁻¹ s⁻¹

**Q.** With B2 as the protein, how does the Km read?
**A.** 200 ± 50 µM

**Q.** What about the kcat of the same protein?
**A.** 0.5 s⁻¹

**Q.** And the kcat/Km?
**A.** 2500 ± 60 M⁻¹ s⁻¹

**Q.** With B3 as the protein, how does the Km read?
**A.** 400 ± 70 µM

**Q.** And the kcat?
**A.** 2.5 ± 2.1 s⁻¹

**Q.** And the kcat/Km?
**A.** 6300 ± 90 M⁻¹ s⁻¹

**Q.** What does the source list for B4?
**A.** Km: 700 ± 60 µM; kcat: 0.9 ± 0.05 s⁻¹; kcat/Km: 1300 ± 30 M⁻¹ s⁻¹

**Q.** What does the source list for B5?
**A.** Km: 700 ± 90 µM; kcat: 1.6 ± 0.04 s⁻¹; kcat/Km: 2300 ± 50 M⁻¹ s⁻¹
